US20150111822A1

Target: Fzd7/Sdc4 co-receptor complex (mouse) (UniProt Q61090)
Experiment: cell-based or functional assay

Chain of Fzd7/Sdc4 co-receptor complex (mouse) (O35988 24-198, chain 2 of 2, other chains not shown): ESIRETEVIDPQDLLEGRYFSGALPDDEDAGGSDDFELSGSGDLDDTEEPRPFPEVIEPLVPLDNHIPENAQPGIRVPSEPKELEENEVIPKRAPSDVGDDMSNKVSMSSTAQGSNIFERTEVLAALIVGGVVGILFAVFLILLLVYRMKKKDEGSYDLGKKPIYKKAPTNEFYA

Row | increase in numbers of Pax7+/YFP+ cells, FN&Wnt7a condition, 72 h [%] | increase in numbers of satellite stem cells, FN&Wnt7a relative to COL&Wnt7a, 72 h [%] | increase in the proportion of symmetric Pax7+/YFP- cell divisions, FN&Wnt7a, 42 h [%] | increase in the proportion of symmetric cell divisions, COL&Wnt7a against COL alone, 42 h [%] | Substance
1 | 38 | 156 | 163 |  | human plasma fibronectin (BD biosciences) (from UniProt P02751 32-2296) (ligand)
2 |  |  |  | 108 | recombinant Wnt7a (R&D Systems) (ligand)
